{
  "source": "patent US20220195407",
  "about": "“OPTIMIZATION OF ENGINEERED MEGANUCLEASES FOR RECOGNITION SEQUENCES” (Precision BioSciences, Inc., published 2022)",
  "binders": {"B1": {"name": "LOX 3-4 GTGG (dsDNA)", "DNA 1": "GTATAGCATGTGGTATACGAAG", "DNA 2": "CTTCGTATACCACATGCTATAC"}, "B2": {"name": "LOX 3-4 ACAG (dsDNA)", "DNA 1": "GTATAGCATACAGTATACGAAG", "DNA 2": "CTTCGTATACTGTATGCTATAC"}, "B3": {"name": "LOX 3-4 GTGC (dsDNA)", "DNA 1": "GTATAGCATGTGCTATACGAAG", "DNA 2": "CTTCGTATAGCACATGCTATAC"}},
  "assay_in_all_cases": "cell_activity; CHO iGFFP reporter",
  "key": {"LOX 3-4 m.192": {"target": "T1, LOX 3-4 m.192 (artificial (I-CreI derived))", "T1 chain": "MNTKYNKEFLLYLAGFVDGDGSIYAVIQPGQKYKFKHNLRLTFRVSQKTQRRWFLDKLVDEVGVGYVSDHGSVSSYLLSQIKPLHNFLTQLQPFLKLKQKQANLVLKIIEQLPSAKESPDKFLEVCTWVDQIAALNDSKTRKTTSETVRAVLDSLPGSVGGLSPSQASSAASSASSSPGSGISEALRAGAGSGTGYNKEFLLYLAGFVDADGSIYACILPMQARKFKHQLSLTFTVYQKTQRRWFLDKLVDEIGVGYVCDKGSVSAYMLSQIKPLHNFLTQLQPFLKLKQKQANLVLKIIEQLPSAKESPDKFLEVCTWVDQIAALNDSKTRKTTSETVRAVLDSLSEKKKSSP", "from_the_text": "(§1) A CHO cell reporter system (see WO/2012/167192, FIG. 3) was used to determine whether the engineered meganucleases generated in these studies could recognize and cleave the modified LOX 3-4 recognition sequences in Table 87. To perform the assay, a pair of CHO cell reporter lines were produced, which carried a non-functional Green Fluorescent Protein (GFP) gene expression cassette integrated into the genome of the cell. The GFP gene in each cell line was interrupted by a pair of recognition sequences such that intracellular cleavage of either recognition sequence by a meganuclease would stimulate a homologous recombination event resulting in a functional GFP gene. In both cell lines, one of the recognition sequences was derived from the LOX 3-4 recognition sequence (i.e., those sequences disclosed in Table 87), and the second recognition sequence was specifically recognized by a control meganuclease called “CHO 23/24.” CHO reporter cells comprising a recognition sequence derived from the LOX 3-4 recognition sequence and the CHO 23/24 recognition sequence are referred to herein as “test cells.”\n(§2) Novel engineered meganucleases derived from the LOX 3-4x.109 meganuclease were prepared by making amino acid substitutions at one or more positions in the first subunit. These engineered meganucleases were then evaluated for cleavage of the LOX 3-4 recognition sequence modified to have a GTGG center sequence (SEQ ID NO: 496) in the CHO reporter assay according to Example 1. Novel meganucleases which were modified to comprise the residues recited in the tables below were capable of cleaving the LOX 3-4 recognition sequence having a GTGG four base pair center sequence."}, "LOX 3-4 m.201": {"target": "T2, LOX 3-4 m.201 (artificial (I-CreI derived))", "T2 chain": "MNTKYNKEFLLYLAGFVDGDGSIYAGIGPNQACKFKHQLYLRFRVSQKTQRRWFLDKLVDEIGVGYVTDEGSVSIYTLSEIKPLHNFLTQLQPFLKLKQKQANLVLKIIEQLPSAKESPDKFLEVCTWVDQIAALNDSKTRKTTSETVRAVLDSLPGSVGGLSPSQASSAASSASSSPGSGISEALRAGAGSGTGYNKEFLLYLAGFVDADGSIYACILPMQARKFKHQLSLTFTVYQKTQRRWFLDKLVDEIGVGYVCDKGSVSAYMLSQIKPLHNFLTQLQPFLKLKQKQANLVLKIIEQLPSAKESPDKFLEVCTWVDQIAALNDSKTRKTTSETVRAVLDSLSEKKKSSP", "from_the_text": "as §1, §2"}, "LOX 3-4 m.203": {"target": "T3, LOX 3-4 m.203 (artificial (I-CreI derived))", "T3 chain": "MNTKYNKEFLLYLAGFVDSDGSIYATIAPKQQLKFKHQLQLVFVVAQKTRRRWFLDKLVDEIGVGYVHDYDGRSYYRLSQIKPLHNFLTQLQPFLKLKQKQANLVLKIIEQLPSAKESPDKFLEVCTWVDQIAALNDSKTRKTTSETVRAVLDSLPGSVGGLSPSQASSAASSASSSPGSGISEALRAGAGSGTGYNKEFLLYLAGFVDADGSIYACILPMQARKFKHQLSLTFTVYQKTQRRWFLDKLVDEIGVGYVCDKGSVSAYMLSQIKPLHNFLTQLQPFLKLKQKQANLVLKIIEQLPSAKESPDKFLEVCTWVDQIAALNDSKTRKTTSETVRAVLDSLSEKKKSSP", "from_the_text": "as §1, §2"}, "LOX 3-4m.788": {"target": "T4, LOX 3-4m.788 (artificial (I-CreI derived))", "T4 chain": "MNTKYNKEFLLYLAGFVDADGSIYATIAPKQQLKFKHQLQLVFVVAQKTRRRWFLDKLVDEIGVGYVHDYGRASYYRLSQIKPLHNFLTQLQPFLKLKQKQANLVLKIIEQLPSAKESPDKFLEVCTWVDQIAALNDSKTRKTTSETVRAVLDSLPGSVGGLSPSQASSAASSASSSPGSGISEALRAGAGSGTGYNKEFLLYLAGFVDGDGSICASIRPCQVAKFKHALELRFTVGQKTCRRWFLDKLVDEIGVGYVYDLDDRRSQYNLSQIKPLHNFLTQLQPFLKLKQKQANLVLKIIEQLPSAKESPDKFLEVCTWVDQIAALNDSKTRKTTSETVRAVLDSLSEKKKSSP", "from_the_text": "as §1\n(§3) Novel engineered meganucleases derived from the LOX 3-4x.109 meganuclease were prepared by making amino acid substitutions at one or more positions in the first subunit and one or more positions in the second subunit. In addition, two engineered meganucleases were generated that inserted an additional R residue following position 264, which corresponds to position 73 of wild-type I-CreI. These engineered meganucleases were then evaluated for cleavage of the LOX 3-4 recognition sequence modified to have an ACAG center sequence (SEQ ID NO: 34) in the CHO reporter assay according to Example 1."}, "LOX 3-4m.856": {"target": "T5, LOX 3-4m.856 (artificial (I-CreI derived))", "T5 chain": "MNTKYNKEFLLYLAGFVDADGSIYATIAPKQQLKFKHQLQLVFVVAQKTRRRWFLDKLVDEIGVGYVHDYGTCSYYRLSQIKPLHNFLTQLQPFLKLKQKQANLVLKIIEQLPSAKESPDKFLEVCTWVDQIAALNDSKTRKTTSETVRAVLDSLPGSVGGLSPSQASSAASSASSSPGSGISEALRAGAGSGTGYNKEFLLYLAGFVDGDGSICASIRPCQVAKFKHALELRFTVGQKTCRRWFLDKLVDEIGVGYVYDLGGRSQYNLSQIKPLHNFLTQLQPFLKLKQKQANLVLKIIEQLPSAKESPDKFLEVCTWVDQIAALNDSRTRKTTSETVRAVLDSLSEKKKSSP", "from_the_text": "as §1, §3"}, "LOX 3-4m.776": {"target": "T6, LOX 3-4m.776 (artificial (I-CreI derived))", "T6 chain": "T5 chain with F54L, G71R, T72Q, Q80E", "from_the_text": "as §1, §3"}, "LOX 3-4m.775": {"target": "T7, LOX 3-4m.775 (artificial (I-CreI derived))", "T7 chain": "T5 chain with F54I, T72K, C73A, Q80E, R330K", "from_the_text": "as §1, §3"}, "LOX 3-4 m.186": {"target": "T8, LOX 3-4 m.186 (artificial (I-CreI derived))", "T8 chain": "T5 chain with A19S, R50S, G71S, T72K, C73T, C241Q, G263S, R264V, N268T, R330K", "from_the_text": "as §1\nas §2, with “GTGC” for “GTGG”, “463)” for “496)”"}, "LOX 3-4 m.180": {"target": "T9, LOX 3-4 m.180 (artificial (I-CreI derived))", "T9 chain": "T5 chain with K48R, R50I, T72A, C73V, C241Q, G263S, R264V, N268T, R330K", "from_the_text": "as §1\nas §2, with “GTGC” for “GTGG”, “463)” for “496)”"}, "LOX 3-4 m.181": {"target": "T10, LOX 3-4 m.181 (artificial (I-CreI derived))", "T10 chain": "T5 chain with A19S, K48S, G71R, T72N, K139T, C241Q, G263S, R264V, N268T, R330K", "from_the_text": "as §1\nas §2, with “GTGC” for “GTGG”, “463)” for “496)”"}},
  "note": "Residue numbers refer to the chain shown, from its start.",
  "data": [
    {"binder": "B1", "values": [
      {"measurement": "activity", "setting": "LOX 3-4 m.192", "result": 11.9, "unit": "% GFP"},
      {"measurement": "activity", "setting": "LOX 3-4 m.201", "result": 11, "unit": "% GFP"},
      {"measurement": "activity", "setting": "LOX 3-4 m.203", "result": 12.1, "unit": "% GFP"}
    ]},
    {"binder": "B2", "values": [
      {"measurement": "activity", "setting": "LOX 3-4m.788", "result": 10.5, "unit": "% GFP"},
      {"measurement": "activity", "setting": "LOX 3-4m.856", "result": 10.8, "unit": "% GFP"},
      {"measurement": "activity", "setting": "LOX 3-4m.776", "result": 10.4, "unit": "% GFP"},
      {"measurement": "activity", "setting": "LOX 3-4m.775", "result": 12.2, "unit": "% GFP"}
    ]},
    {"binder": "B3", "values": [
      {"measurement": "activity", "setting": "LOX 3-4 m.186", "result": 13.4, "unit": "% GFP"},
      {"measurement": "activity", "setting": "LOX 3-4 m.180", "result": 13.7, "unit": "% GFP"},
      {"measurement": "activity", "setting": "LOX 3-4 m.181", "result": 13.8, "unit": "% GFP"}
    ]}
  ]
}
